B1: HcΔ14 (other)
chain: MPHPKGSRIVINREHLMIDRPYVLLAVLFVMFLSLIGLLAIAGIRLHRAAIYTAEIHKSLSTNLDVTNSIEHQVKDVLTPLFKIIGDEVGLRTPQRFTDLVKFISDKIKFLNPDREYDFRDLTWCINPPERIKLDYDQYCADVAAEELMNALVNSTLLETRTTNQFLAVSKGNCSGPTTIRGQFSNMSLSLLDLYLGRGYNVSSIVTMTSQGMYGGTYLVEKPNLSSKRSELSQLSMYRVFEVGVIRNPGLGAPVFHMTNYLEQPVSNDLSNCMVALGELKLAALCHGEDSITIPYQGSGKGVSFQLVKLGVWKSPTDMQSWVPLSTDDPVIDRLYLSSHRGVIADNQAKWAVPTTRTDDKLRMETCFQQACKGKIQALCENPEWAPLKDNRIPSYGVLSVDLSLTVELKIKIASGFGPLITHGSGMDLYKSNHNNVYWLTIPPMKNLALGVINTLEWIPRFKVSPYLFTVPIKEAGGDCHAPTYLPAEVDGDVKLSSNLVILPGQDLQYVLATYDTSRVEHAVVYYVYSPSRSFSYFYPFRLPIKGVPIELQVECFTWDQKLWCRHFCVLADSESGGHITHSGMVGMGVSCTVTREDGTNRR
B2: HcΔ19 (other)
chain: MSRIVINREHLMIDRPYVLLAVLFVMFLSLIGLLAIAGIRLHRAAIYTAEIHKSLSTNLDVTNSIEHQVKDVLTPLFKIIGDEVGLRTPQRFTDLVKFISDKIKFLNPDREYDFRDLTWCINPPERIKLDYDQYCADVAAEELMNALVNSTLLETRTTNQFLAVSKGNCSGPTTIRGQFSNMSLSLLDLYLGRGYNVSSIVTMTSQGMYGGTYLVEKPNLSSKRSELSQLSMYRVFEVGVIRNPGLGAPVFHMTNYLEQPVSNDLSNCMVALGELKLAALCHGEDSITIPYQGSGKGVSFQLVKLGVWKSPTDMQSWVPLSTDDPVIDRLYLSSHRGVIADNQAKWAVPTTRTDDKLRMETCFQQACKGKIQALCENPEWAPLKDNRIPSYGVLSVDLSLTVELKIKIASGFGPLITHGSGMDLYKSNHNNVYWLTIPPMKNLALGVINTLEWIPRFKVSPYLFTVPIKEAGGDCHAPTYLPAEVDGDVKLSSNLVILPGQDLQYVLATYDTSRVEHAVVYYVYSPSRSFSYFYPFRLPIKGVPIELQVECFTWDQKLWCRHFCVLADSESGGHITHSGMVGMGVSCTVTREDGTNRR
B3: HcΔ18 (other)
chain: MGSRIVINREHLMIDRPYVLLAVLFVMFLSLIGLLAIAGIRLHRAAIYTAEIHKSLSTNLDVTNSIEHQVKDVLTPLFKIIGDEVGLRTPQRFTDLVKFISDKIKFLNPDREYDFRDLTWCINPPERIKLDYDQYCADVAAEELMNALVNSTLLETRTTNQFLAVSKGNCSGPTTIRGQFSNMSLSLLDLYLGRGYNVSSIVTMTSQGMYGGTYLVEKPNLSSKRSELSQLSMYRVFEVGVIRNPGLGAPVFHMTNYLEQPVSNDLSNCMVALGELKLAALCHGEDSITIPYQGSGKGVSFQLVKLGVWKSPTDMQSWVPLSTDDPVIDRLYLSSHRGVIADNQAKWAVPTTRTDDKLRMETCFQQACKGKIQALCENPEWAPLKDNRIPSYGVLSVDLSLTVELKIKIASGFGPLITHGSGMDLYKSNHNNVYWLTIPPMKNLALGVINTLEWIPRFKVSPYLFTVPIKEAGGDCHAPTYLPAEVDGDVKLSSNLVILPGQDLQYVLATYDTSRVEHAVVYYVYSPSRSFSYFYPFRLPIKGVPIELQVECFTWDQKLWCRHFCVLADSESGGHITHSGMVGMGVSCTVTREDGTNRR

The values below come from patent publication US9862971B2 (BUNDESREPUBLIK DEUTSCHLAND, LETZTVERTRETEN DURCH DEN …, dated 2018).

This test addresses CD46 (human, UniProt P15529). The test can be described thus: cell-based or functional assay.
In the case of B1, the “titer [t.u./ml] of HIV-1 vector particles on 293T cells, concentrated supernatant” value (“titer … on 293T cells, concentrated supernatant” for short) was 2900 t.u./ml and the “titer [t.u./ml] of HIV-1 vector particles on U-87MG cells, concentrated supernatant” value was 3420 t.u./ml.
For B2, the “titer … on 293T cells, concentrated supernatant” value amounted to 200000 t.u./ml and the “titer [t.u./ml] of HIV-1 vector particles on U-87MG cells, concentrated supernatant” value was not below 1e+06 t.u./ml.
As for B3, the “titer … on 293T cells, concentrated supernatant” value amounted to 1e+06 t.u./ml and the “titer [t.u./ml] of HIV-1 vector particles on U-87MG cells, concentrated supernatant” value is not below 1e+06 t.u./ml.
